One may read the Ki as the equilibrium dissociation constant of an inhibitor or competing ligand from its target. A word on the Km: it is the substrate concentration at which the rate is half of its maximum. By kcat is commonly meant the number of substrate molecules converted per active site and unit of time at saturation. By kcat/Km is commonly meant the turnover number divided by the Michaelis constant.

Data set [1] has as its target T1, Δ^1-pyrroline-5-carboxylate dehydrogenase (MmP5CDH, ALDH4A1) (Mus musculus, UniProt Q8CHT0).
T1 sequence (Q8CHT0 21-562): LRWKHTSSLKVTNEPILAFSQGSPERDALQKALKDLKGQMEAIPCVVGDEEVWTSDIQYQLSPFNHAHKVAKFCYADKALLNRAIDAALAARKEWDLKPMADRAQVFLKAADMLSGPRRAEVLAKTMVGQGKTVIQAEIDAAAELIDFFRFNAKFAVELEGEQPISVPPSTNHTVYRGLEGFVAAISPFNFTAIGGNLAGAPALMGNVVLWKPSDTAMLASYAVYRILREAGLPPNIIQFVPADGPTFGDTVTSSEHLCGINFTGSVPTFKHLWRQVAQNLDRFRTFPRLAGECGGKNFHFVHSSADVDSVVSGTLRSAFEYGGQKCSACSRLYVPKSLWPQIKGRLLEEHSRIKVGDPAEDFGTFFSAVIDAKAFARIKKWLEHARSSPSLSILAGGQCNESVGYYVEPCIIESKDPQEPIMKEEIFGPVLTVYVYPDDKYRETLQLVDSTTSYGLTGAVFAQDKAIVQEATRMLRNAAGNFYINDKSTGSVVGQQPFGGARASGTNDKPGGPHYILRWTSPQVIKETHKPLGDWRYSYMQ
Kind of data set: X-ray crystal structure. Type of data set: biochemical.

In data set [2] the target is T1, Δ^1-pyrroline-5-carboxylate dehydrogenase (MmP5CDH, ALDH4A1). Kind of data set: steady-state inhibition kinetics, NADH production at […] nm, competitive model. Type of data set: biochemical.
Substrate in data set [3]: O=CCCC(=O)O
Kind of data set: purified protein. Particulars: NAD+ aldehyde substrate site; 20.0 °C.

For `O=CC(=O)O` [compound 4, glyoxylate], in data set [1], the Ki was 270 µM.
`N[C@@H](CCC(=O)O)C(=O)O` [L-glutamate] came in with a Ki in data set [2] of 12 mM.

B1: Δ^1-pyrroline-5-carboxylate dehydrogenase (MmP5CDH, ALDH4A1) (Mus musculus) (protein)
chain: LRWKHTSSLKVTNEPILAFSQGSPERDALQKALKDLKGQMEAIPCVVGDEEVWTSDIQYQLSPFNHAHKVAKFCYADKALLNRAIDAALAARKEWDLKPMADRAQVFLKAADMLSGPRRAEVLAKTMVGQGKTVIQAEIDAAAELIDFFRFNAKFAVELEGEQPISVPPSTNHTVYRGLEGFVAAISPFNFTAIGGNLAGAPALMGNVVLWKPSDTAMLASYAVYRILREAGLPPNIIQFVPADGPTFGDTVTSSEHLCGINFTGSVPTFKHLWRQVAQNLDRFRTFPRLAGECGGKNFHFVHSSADVDSVVSGTLRSAFEYGGQKCSACSRLYVPKSLWPQIKGRLLEEHSRIKVGDPAEDFGTFFSAVIDAKAFARIKKWLEHARSSPSLSILAGGQCNESVGYYVEPCIIESKDPQEPIMKEEIFGPVLTVYVYPDDKYRETLQLVDSTTSYGLTGAVFAQDKAIVQEATRMLRNAAGNFYINDKSTGSVVGQQPFGGARASGTNDKPGGPHYILRWTSPQVIKETHKPLGDWRYSYMQ
Take B1: in data set [3], the Michaelis-Menten constant (Km) was determined as 26 ± 2 µM, the kcat amounted to 0.16 s⁻¹ and the kcat/Km was 6200 M⁻¹ s⁻¹.

Values taken from PMC3915059 (Archives of biochemistry and biophysics, 2013).
